Here are results for one substance from article PMC12491500.

In this experiment the target is His-tagged SA2107 labelled with ATTO 488 (SA2107_(488)) (Staphylococcus aureus). Description: flow-induced dispersion analysis (FIDA); PreMix method; 20 nM SA2107_(488) as indicator, preincubated 10 min with 0-2 µM unlabelled ComK1 or ComK2 as analyte; PBS + Tween 0.1%; 25 °C; change of the apparent hydrodynamic radius; three independent experiments.

Regarding “His6-tagged ComK2 (recombinant, purified) (natural protein)”, the Kd came out at 0.42 µM.
